Numbering of substitutions follows the chain as printed. Like-named read-outs stand apart in the source and are kept apart here.
B1: LumFD (LumFDs/LumFDa) (dsDNA)
DNA 1: AAGTGAAAAAAAAAAGAGCTATTCGAAGGG
DNA 2: GATTCCCTTCGAATAGCTCTTTTTTTTTTC
B2: LumF (LumFs/LumFa) (dsDNA)
DNA 1: B1 DNA 1 with C19A
DNA 2: B1 DNA 2 with G16T
B3: LumM (LumMs/LumMa) (dsDNA)
DNA 1: TAAGTAGATATTGAAAGCAAGATTGAAAAAAATGTTG
DNA 2: AATCAAACATTTTTTTCAATCTTGCTTTCAATATCT
B4: LumMD (LumMDs/LumMDa) (dsDNA)
DNA 1: B3 DNA 1 with A8C
DNA 2: B3 DNA 2 with T34G

What was measured:
GST-CCA1 [1] = target: T1, GST-CCA1 (Arabidopsis thaliana, UniProt P92973 1-608); test: EMSA
GST-CCA1 [2] = target: T1, GST-CCA1; test: EMSA; remark: listed apart in the source

T1 sequence (P92973 whole entry): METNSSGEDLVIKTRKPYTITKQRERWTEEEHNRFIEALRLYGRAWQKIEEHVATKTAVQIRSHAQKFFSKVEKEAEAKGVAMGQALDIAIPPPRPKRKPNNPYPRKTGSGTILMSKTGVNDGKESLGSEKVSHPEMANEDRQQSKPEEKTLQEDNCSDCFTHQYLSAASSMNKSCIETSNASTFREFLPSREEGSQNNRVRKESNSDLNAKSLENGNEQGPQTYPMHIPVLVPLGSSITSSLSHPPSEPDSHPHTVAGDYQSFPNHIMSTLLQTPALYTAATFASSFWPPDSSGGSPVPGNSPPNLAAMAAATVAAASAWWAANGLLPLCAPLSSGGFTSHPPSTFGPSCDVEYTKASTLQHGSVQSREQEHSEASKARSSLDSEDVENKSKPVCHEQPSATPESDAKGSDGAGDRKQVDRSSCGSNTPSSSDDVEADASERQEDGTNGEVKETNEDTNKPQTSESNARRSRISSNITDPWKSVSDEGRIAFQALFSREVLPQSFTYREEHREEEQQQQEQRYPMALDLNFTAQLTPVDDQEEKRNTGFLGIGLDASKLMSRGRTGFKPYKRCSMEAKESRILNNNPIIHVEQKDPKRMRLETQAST

| Binder | binding result (GST-CCA1 [1]) | binding result (GST-CCA1 [2]) |
| --- | --- | --- |
| B1 | no binding |  |
| B2 |  | binds |
| B3 |  | binds |
| B4 | no binding |  |

From publication PMC3060684
